Data published in paper PMC9175631 (Journal of Virology, 2022).

Experiments:
[1] = target: ZIKV prM/E (ZIKV SPH2015), E E162A (Zika virus (ZIKV SPH2015)); test: flow cytometry on cells
[2] = target: ZIKV prM/E (ZIKV SPH2015), E G100A (Zika virus (ZIKV SPH2015)); test: flow cytometry on cells
[3] = target: ZIKV prM/E (ZIKV SPH2015), E G182A (Zika virus (ZIKV SPH2015)); test: flow cytometry on cells
[4] = target: ZIKV prM/E (ZIKV SPH2015), prM G59A (Zika virus (ZIKV SPH2015)); test: flow cytometry on cells
[5] = target: T1, wild-type ZIKV prM/E (ZIKV SPH2015) (Zika virus, SPH2015, UniProt A0A0U3FSM8, strain); test: flow cytometry on cells; details: one partner purified
T1 construct: also called WT prM/E; wild-type prM/E; source: HEK-293T, transfected, cells fixed and permeabilised

[6] = target: T2, ZIKV prM protein of heat-denatured ZIKV-VLP (Western band) (Zika virus, Suriname Z1106033, UniProt A0A0U4DG08, strain); test: Western blot (Wes capillary electrophoresis); 27 or 240 ng ZIKV-VLP denatured at 70°C for 5 min without reducing agent, electrophoresed, probed with 10 μg/mL MAb; details: both partners purified
T2 construct: subunit of m13; also called precursor membrane protein

B1: anti-ZIKV MAb 278-11 (antibody, V domains shown)
VH: QSLEESGGGLVQPEGSLTLACTASEFDSSSNAMCWVRQAPGKGLEWIARIYSGSGTIYYANWARGRFTISKTSSTTVTLQMTSLTDADTATYFCARYNTGGFYYDLWGPGTLVTVSS
VL: ALVMTQTPASVEAAVGGTVTINCQASQRIGTNLAWYQQKPGQPPKVLIYKASTLASGVSSRFIGSGSGTDYTLTISGVECDDAATYYCQQGYSSNDADNTFGGGTEVVVK
notes: recombinant rabbit IgG; source: 293-6E cells, cotransfected, purified (MabSelect SuRe protein A)
antibody binding reactivity (% WT) [1]: 77.8 % WT
antibody binding reactivity (% WT) [2]: 95.1 % WT
antibody binding reactivity (% WT) [3]: 85.9 % WT
antibody binding reactivity (% WT) [4]: 28.5 % WT
binding result [5]: binds
binding result [6]: binds
